According to publication PMC6397515:

Assays:
[1] = molecular target: full-length StHypT protein (HypT of Salmonella enterica serovar Typhimurium, WP_000383509) (Salmonella enterica serovar Typhimurium); experiment: SEC
[2] = molecular target: full-length StHypT protein (HypT of Salmonella enterica serovar Typhimurium, WP_000383509) (Salmonella enterica serovar Typhimurium); experiment: crystal structure
[3] = molecular target: HypT RD M206Q mutant protein (Salmonella enterica serovar Typhimurium); experiment: crystal structure

“full-length StHypT protein (HypT of Salmonella enterica serovar Typhimurium, WP_000383509) (natural protein)” was tested, and the stoichiometry N [1] was 4 and the stoichiometry N [2] was 4.
In the case of “HypT RD M206Q mutant protein (domain or fragment)”, the stoichiometry N [3] is reported as 2.
